This sample holds only a part of the variants without activity.
B1: TPR 5TU (parent)
chain: GGAUCUUCUCGAUCUAACAAAAAAGACAAAUCUGCCACAAAGCUUGAGAGCAUCUUCGGAUGCAGAGGCGGCAGCCUUCGGUGGCGCGAUAGCGCCAACGUUCUCAACUAUGACACGCAAAACGCGUGCUCCGUUGAAUGGAGUUUAUCAUG

Variants of: B1
Experiment: polymerase ribozyme fitness, log enrichment relative to wild type (log ratio); higher = more active; in vitro selection for triplet polymerase activity
How it was run: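 Mutant libraries of each subunit of a heterodimeric triplet polymerase ribozyme were built by PCR and transcribed. Each library went through one round of in vitro selection in triplicate: annealing with biotinylated primer, partner subunit and triplets, frozen incubation at −7 °C, gel excision of extended constructs, streptavidin-bead capture and RT-PCR. Input and output libraries were Illumina-sequenced; only genotypes with ≥10 input reads and ≥1 read per output were kept. Fitness is log2(genotype enrichment/wild-type enrichment), using inverse-variance-weighted replicate averages.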

Row | Variant | polymerase ribozyme fitness (log ratio)
1 | U101G A115U G117U A150C | ≤ -4.2
2 | A110G G136A | -2.94
3 | A106G C116U U148C | -1.25
4 | A113U G124U | -2.07
5 | A113U G124C | -3.17
6 | C108U C132A U139A | ≤ -4.2
7 | U101C A150G | -1.59
8 | C123A G140A | -3.65
9 | A121U C132U U146A | -0.968
10 | C103A A120C G124A U134A | -3.66
11 | G124A G140C | -3.89
12 | A106G A110U | -3.42
13 | G117A U144C | -2.9
14 | A107G C131A | -4.19
15 | G117U U145G | -3.12
16 | C99G U101A | -1.12
17 | C118G G141A | -0.0985
18 | A120G G128U | -2.36
19 | A115G G124A A150G | -4
20 | A113U U146C | -1.49
21 | A115G C116A U127G | ≤ -4.2
22 | C103G U135A | -2.27
23 | U101G A107U | -3.84
24 | C108U A115G | -3.94

Row | Variant | polymerase ribozyme fitness (log ratio)
25 | A119G U146A | -0.399
26 | A122G G133U | -3.59
27 | C114G G133A | ≤ -4.2
28 | C114U G141C | -3.4
29 | G124U G143U U148G | ≤ -4.2
30 | U109G G140U | -3.76
31 | A113G U134A | ≤ -4.2
32 | C114U C125U | -3.33
33 | U109G G133C | -2
34 | C116U U134C | -0.00566
35 | A106U U135A | -2.14
36 | A107G G141U | -3.07
37 | C118U U135C | -2.19
38 | U109G A142C | -2.18
39 | C118U U148G | -3.62
40 | C118U U148A | -2.79
41 | C103U U139A | -3.96
42 | A122G U127A G128A | -4.01
43 | A119U | -0.546
44 | A119C | -0.385
45 | A119G | -0.045
46 | C116G U146G | -0.306
47 | C118A A121C U144C | -0.821
48 | U109G C118A C125G | -3.62

Row | Variant | polymerase ribozyme fitness (log ratio)
49 | C114U U135C | -2.95
50 | G124A A137G | -1.05
51 | U104A A137C | -3.89
52 | A107C C118U | ≤ -4.2
53 | A106G A115U | -1.05
54 | C103G G128C | ≤ -4.2
55 | A122C G126A | -0.186
56 | U102G C105U C125U A150C | -4.12
57 | A122G C125A U134G | -2.92
58 | C116G A119U | 0.403
59 | C114A | -2.72
60 | C114U | -1.75
61 | C114G | -2.54
62 | G117A C123A | 0.34
63 | A107U A110U C114U | ≤ -4.2
64 | U102C U134A | -3.46
65 | A122G G124A U127A | -3.53
66 | A106G U134A | -1.28
67 | A106C C116G | -0.324
68 | C114U A137U | -4.05
69 | A115U U134C | -1.19
70 | A121U U145C | 1.15
71 | C99A G136A | -0.217
72 | A107C A110G A121G | ≤ -4.2

Row | Variant | polymerase ribozyme fitness (log ratio)
73 | U102G A121C | -2.85
74 | U102G A121U | -2.32
75 | A107G C118U U145A | ≤ -4.2
76 | A120G A137C | -4.08
77 | A106G G117A | 0.816
78 | C103A U144G | -2.84
79 | C99G A147C | -1.47
80 | A106C C114A G140C G141C | ≤ -4.2
81 | A115U G126A | -3.35
82 | U101G C118A G126A | -3.59
83 | C99G C114U | -2.38
84 | C105G U127C U139G | -2.77
85 | U109A G141A A142U | ≤ -4.2
86 | A110G | -2.42
87 | A110U | -3.57
88 | C114U A147C | -2.83
89 | C99U A147G | -2
90 | U102C G136A | -0.705
91 | C103G G141U | -3.36
92 | C118A U144A | 0.0258
93 | C105G A138G | -3.88
94 | C114G A119G | -2.84
95 | C99U C103A G128A G136U U148G | ≤ -4.2
96 | C108A G143U U144G | ≤ -4.2

Row | Variant | polymerase ribozyme fitness (log ratio)
97 | C103A A142G | -2.71
98 | C99G A115G C125G G136C | -3.89
99 | A121U C125U G143C U146C | -3.38
100 | A107U A115G | -4.16
101 | A106G U146A | -0.139
102 | G117A C123A A150G | -1.18
103 | C99G G117C A122G | -1.51
104 | U101G G124A | 0.852
105 | A122G U144G | 0.851
106 | C116U U130C | 1.13
107 | U101C C132A | -2.05
108 | A113G A138U | -3.79
109 | C118G A119U G141U | -0.349
110 | G100A G126A | -4.02
111 | A121C C125U G143U | -2.41
112 | G124A C125G | 0.356
113 | C103G A138G | -3.66
114 | C108G G136A A147C | ≤ -4.2
115 | G117C A120G | 0.308
116 | C105G U134C G140U | -4.18
117 | C116U G141A | -1.01
118 | U102G C116A | -2.07
119 | A115C A142G A150U | -3.13
120 | G124A A150G | -0.501

Row | Variant | polymerase ribozyme fitness (log ratio)
121 | U104G G141U | 0.973
122 | A107G U127C A138C | ≤ -4.2
123 | A119C U139C | -3.46
124 | C114U C131U | -1.64
125 | G124C G140C | -4.05
126 | U111G | -4.05
127 | U111C | -1.77
128 | U111A | -3.05
129 | C114U G140C A150C | ≤ -4.2
130 | G124A G136A | -0.107
131 | U104C | 0.352
132 | U104A | 0.0691
133 | U104G | -0.299
134 | A113C C118A | ≤ -4.2
135 | A115U U148G | -4.15
136 | G100A C129G | ≤ -4.2
137 | C99U C125U | 0.0952
138 | A122C C149U | -1.16
139 | A120U U145C | -0.0409
140 | C108U A142C | -3.43
141 | C103G U151A | ≤ -4.2
142 | G124U U135C | -2.36
143 | A106C G141A | -0.24
144 | A106G C125A | -0.665

Row | Variant | polymerase ribozyme fitness (log ratio)
145 | G100U U101G | -3.34
146 | C99A C118G A119C | -0.582
147 | U101A A106C A147G | -3.14
148 | U102G C116G G133C | -3.6
149 | U102C U148C | -3.19
150 | A120G G141C A147U | -1.01
151 | C114U G136C | -3.39
152 | U102C A150C | -4.08
153 | C108U A147C | -3.44
154 | U102C A120U G140C | -3.56
155 | U102G G124C G133A A137G G143U | ≤ -4.2
156 | A119U A137U | -4.12
157 | C123U U145A | 0.729
158 | A107G C132U G133U | -3.52
159 | C99G A121C U151A | ≤ -4.2
160 | C118U A142C | -0.682
161 | C118G A119G | 0.312
162 | U111C G117U | -4.09
163 | A110U G128A | ≤ -4.2
164 | C103A A120G C131U A138U | -3.71
165 | C105G C118A | -3.26
166 | G117A A142U | -4.13
167 | A119U C129U | 0.265

Reference: the RNAGym collection of RNA variant scans (doi:10.1073/pnas.2313332121)
